Measurements reported in paper PMC7943601, “Substrate-engaged type III secretion system structures reveal gating mechanism for unfolded protein translocation” (Nature Communications, 2021).

B1: SpaR (natural protein)
chain: MFYALYFEIHHLVASAALGFARVAPIFFFLPFLNSGVLSGAPRNAIIILVALGVWPHALNEAPPFLSVAMIPLVLQEAAVGVMLGCLLSWPFWVMHALGCIIDNQRGATLSSSIDPANGIDTSEMANFLNMFAAVVYLQNGGLVTMVDVLNKSYQLCDPMNECTPSLPPLLTFINQVAQNALVLASPVVLVLLLSEVFLGLLSRFAPQMNAFAISLTVKSGIAVLIMLLYFSPVLPDNVLRLSFQATGLSSWFYERGATHVLE
notes: SpaR, export apparatus protein of the S. enterica sv; Typhimurium injectisome; One copy in the export apparatus
B2: SpaP (natural protein)
chain: MGNDISLIALLAFSTLLPFIIASGTCFVKFSIVFVMVRNALGLQQIPSNMTLNGVALLLSMFVMWPIMHDAYVYFEDEDVTFNDISSLSKHVDEGLDGYRDYLIKYSDRELVQFFENAQLKRQYGEETETVKRDKDEIEKPSIFALLPAYALSEIKSAFKIGFYLYLPFVVVDLVVSSVLLALGMMMMSPVTISTPIKLVLFVALDGWTLLSKGLILQYMDIAT
notes: SpaP, export apparatus protein of the S. enterica sv; Typhimurium injectisome; Five copies in the export apparatus (SpaP : Q : R 5 : 4 : 1); also called SpaP1-5; SpaP pentamer
B3: InvG (natural protein)
chain: SEKIPVTGSGFVAKDDSLRTFFDAMALQLKEPVIVSKMAARKKITGNFEFHDPNALLEKLSLQLGLIWYFDGQAIYIYDASEMRNAVVSLRNVSLNEFNNFLKRSGLYNKNYPLRGDNRKGTFYVSGPPVYVDMVVNAATMMDKQNDGIELGRQKIGVMRLNNTFVGDRTYNLRDQKMVIPGIATAIERLLQGEEQPLGNIVSSEPPAMPAFSANGEKGKAANYAGGMSLQEALKQNAAAGNIKIVAYPDTNSLLVKGTAEQVHFIEMLVKALDVAKRHVELSLWIVDLNKSDLERLGTSWSGSITIGDKLGVSLNQSSISTLDGSRFIAAVNALEEKKQATVVSRPVLLTQENVPAIFDNNRTFYTKLIGERNVALEHVTYGTMIRVLPRFSADGQIEMSLDIEDGNDKTPQSDTTTSVDALPEVGRTLISTIARVPHGKSLLVGGYTRDANTDTVQSIPFLGKLPLIGSLFRYSSKNKSNVVRVFMIEPKEIVDPLTPDASESVNNILKQSGAWSGDDKLQKWVRVYLDRGQEAIK
notes: InvG, basal body ring protein (outer rings) of the S. enterica sv; Typhimurium injectisome; modelled as G34-I173 (lower OR) and E174-G557 (upper OR); Printed as InvG_(1-15/16); the upper outer ring was built in a C15-symmetrized map; also called InvG_(1-15/16); outer rings

Columns and labels:
Assay in all cases: cryo-EM structure
cryo-EM structure = molecular target: the molecule itself
PrgJ = molecular target: T1, PrgJ (S. enterica sv. Typhimurium (endogenous …, UniProt P41785 1-101)); conditions: both partners purified
T1 construct: PrgJ, inner rod protein of the S. enterica sv; Typhimurium injectisome; Six protomers form the inner rod; also called PrgJ1-6; inner rod protein
T1 sequence (P41785 whole entry): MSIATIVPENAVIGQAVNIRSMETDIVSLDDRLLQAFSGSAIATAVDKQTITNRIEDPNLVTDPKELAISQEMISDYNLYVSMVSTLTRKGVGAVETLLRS

SpaR = molecular target: B1; conditions: both partners purified
SpaP = molecular target: B2; conditions: both partners purified
InvG = molecular target: B3; conditions: both partners purified

Row | Binder | stoichiometry N (cryo-EM structure) | binding result (PrgJ) | further results
1 | PrgK (natural protein, PrgK, basal body ring protein of the S. enterica sv; Typhimurium injectisome; also called PrgK_(1-24); copies: 24) CKDKDLLKGLDQEQANEVIAVLQMHNIEANKIDSGKLGYSITVAEPDFTAAVYWIKTYQLPPRPRVEIAQMFPADSLVSSPRAEKARLYSAIEQRLEQSLQTMEGVLSARVHISYDIDAGENGRPPKPVHLSALAVYERGSPLAHQISDIKRFLKNSFADVDYDNISVVLSERSDAQLQAPGTPVKRNSFATSWIVLIILLSVMSAGFGVWYYKNHYARNKKGITADDKAKSSNE | 24 | – | –
2 | B1 | – | binds | –
3 | SpaQ (natural protein, also called SpaQ1-4) MDDLVFAGNKALYLVLILSGWPTIVATIIGLLVGLFQTVTQLQEQTLPFGIKLLGVCLCLFLLSGWYGEVLLSYGRQVIFLALAKG | 4 | – | binding result (SpaR): binds; binding result (SpaP): binds
4 | PrgI (natural protein, PrgI, needle filament protein of the S. enterica sv; Typhimurium injectisome; Helical filament; 72 subunits were modelled in the substrate-trapped map; also called PrgI_(1-72); needle filament protein) MATPWSGYLDDVSAKFDTGVDNLQTQVTEALDKLAAKPSDPALLAAYQSKLSEYNLYRNAQSNTVKVFKDIDAAIIQNFR | – | binds | binding result (SpaP): binds; binding result (InvG): binds; binding result (cryo-EM structure): binds
5 | B2 | 5 | binds | binding result (SpaR): binds
6 | B3 | – | binds | –
7 | PrgH (natural protein, PrgH, basal body ring protein of the S. enterica sv; Typhimurium injectisome; also called PrgH_(1-24); copies: 24) METSKEKTITSPGPYIVRLLNSSLNGCEFPLLTGRTLFVVGQSDALTASGQLPDIPADSFFIPLDHGGVNFEIQVDTDATEIILHELKEGNSESRSVQLNTPIQVGELLILIRPESEPWVPEQPEKLETSAKKNEPRFKNGIVAALAGFFILGIGTVGTLWILNSPQRQAAELDSLLGQEKERFQVLPGRDKMLYVAAQNERDTLWARQVLARGDYDKNARVINENEENKRISIWLDTYYPQLAYYRIHFDEPRKPVFWLSRQRNTMSKKELEVLSQKLRALMPYADSVNITLMDDVTAAGQAEAGLKQQALPYSRRNHKGGVTFVIQGALDDVEILRARQFVDSYYRTWGGRYVQFAIELKDDWLKGRSFQYGAEGYIKMSPGHWYFPSPL | 24 | – | –
